{"source": "paper PMC8745601", "about": "(International Journal of Molecular Sciences, 2021)", "key": {"[1]": {"tested_on": "breast cancer cell lines MCF-7, MDA-MB-231, ZR-75-1", "test": "Resazurin cell viability assay in breast cancer cell lines", "settings": "100 µM MPP+, 100 µmol/L doxorubicin, 72 h", "procedure": "Resazurin-Assay: To determine cell viability, cells were seeded at a density of 10,000 cells/well in 96-well multiplates. […] Afterward, 100 µL from each well was placed in a cavity of a 96-well plate, and the fluorescence was determined on a microplate reader (TECAN infinite M200, Tecan GmbH, Crailsheim, Germany) at an excitation wavelength of 530 nm and an emission wavelength of 590 nm."}, "P-gp": {"molecular_target": "T1, P-gp (Homo sapiens, UniProt P08183)", "T1 construct": "expressed in transfected cells; host or cells: MDCKII", "T1 sequence (P08183 whole entry)": "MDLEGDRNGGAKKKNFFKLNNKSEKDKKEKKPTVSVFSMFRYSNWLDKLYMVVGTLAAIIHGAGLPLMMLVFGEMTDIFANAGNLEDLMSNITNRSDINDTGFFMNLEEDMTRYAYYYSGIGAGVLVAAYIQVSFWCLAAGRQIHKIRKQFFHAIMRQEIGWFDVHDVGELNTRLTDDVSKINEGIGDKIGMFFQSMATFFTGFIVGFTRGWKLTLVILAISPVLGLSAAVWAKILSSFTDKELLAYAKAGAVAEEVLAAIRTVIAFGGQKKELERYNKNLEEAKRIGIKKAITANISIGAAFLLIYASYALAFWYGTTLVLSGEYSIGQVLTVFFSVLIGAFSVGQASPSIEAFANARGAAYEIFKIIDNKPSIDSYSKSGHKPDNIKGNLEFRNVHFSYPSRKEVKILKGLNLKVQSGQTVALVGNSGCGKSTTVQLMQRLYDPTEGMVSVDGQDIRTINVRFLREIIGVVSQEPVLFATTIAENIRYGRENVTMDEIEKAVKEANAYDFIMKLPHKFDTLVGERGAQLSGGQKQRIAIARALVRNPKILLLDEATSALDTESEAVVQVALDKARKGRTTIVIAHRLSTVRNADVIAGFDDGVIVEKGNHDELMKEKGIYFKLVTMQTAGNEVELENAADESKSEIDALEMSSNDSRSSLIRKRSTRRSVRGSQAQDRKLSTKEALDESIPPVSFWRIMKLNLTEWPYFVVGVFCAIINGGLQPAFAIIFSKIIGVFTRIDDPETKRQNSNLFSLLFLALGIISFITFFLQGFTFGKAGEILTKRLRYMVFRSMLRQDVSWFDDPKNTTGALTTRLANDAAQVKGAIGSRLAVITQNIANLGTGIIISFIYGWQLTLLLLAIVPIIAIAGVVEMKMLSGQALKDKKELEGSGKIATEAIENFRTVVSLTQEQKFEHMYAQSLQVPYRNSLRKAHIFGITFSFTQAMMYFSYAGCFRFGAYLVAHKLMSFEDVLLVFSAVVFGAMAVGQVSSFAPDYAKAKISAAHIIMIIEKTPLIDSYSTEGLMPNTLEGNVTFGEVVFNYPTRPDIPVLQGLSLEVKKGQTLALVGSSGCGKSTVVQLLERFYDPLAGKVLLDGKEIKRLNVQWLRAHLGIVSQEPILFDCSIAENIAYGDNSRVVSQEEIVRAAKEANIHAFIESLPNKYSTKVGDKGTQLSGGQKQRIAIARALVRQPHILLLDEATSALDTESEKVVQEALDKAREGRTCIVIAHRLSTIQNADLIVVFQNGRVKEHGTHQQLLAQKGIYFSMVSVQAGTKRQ", "test": "Transwell assay, MDCKII cells stably expressing P-gp", "type": "cell-based", "settings": "PSC833 10 µmol/L; 100 µmol/L doxorubicin", "procedure": "In brief, MDCKII cells stably expressing P-gp or BCRP were seeded on 0.4 µm Transwell® membrane inserts (200.000 cells/insert; Ø6.5 mm, growth area 0.33 cm2) and allowed to differentiate for five days. The integrity of the monolayer was confirmed by monitoring the trans-epithelial electrical resistance (TEER) using the EVOMX system (WPI, Sarasota, FL, USA). […] Every 30 min, the incubation buffer was removed from the receiver compartment and replaced by a freshly preheated buffer for a total time of 2.5 h."}, "[2]": {"substrate": "COc1cccc2c1C(=O)c1c(O)c3c(c(O)c1C2=O)C[C@@](O)(C(=O)CO)C[C@@H]3O[C@H]1C[C@H](N)[C@H](O)[C@H](C)O1", "test": "cells, lysate or membranes", "settings": "other: MDCKII-OCT3; doxorubicin 0–100 µmol/L; 3 min; mean ± SD; 37.0 °C"}, "[3]": {"substrate": "COc1cccc2c1C(=O)c1c(O)c3c(c(O)c1C2=O)C[C@@](O)(C(=O)CO)C[C@@H]3O[C@H]1C[C@H](N)[C@H](O)[C@H](C)O1"}}, "note": "Like-named read-outs stand apart in the source and are kept apart here.", "data": [{"molecule": "C[n+]1ccc(-c2ccccc2)cc1", "note": "[MPP+]", "values": [{"measurement": "effect of inhibitor on cytotoxic effects of doxorubicin", "setting": "[1]", "value": "significantly attenuated"}]}, {"molecule": "C/C=C/C[C@@H](C)C(=O)[C@H]1C(=O)N[C@@H](C(C)C)C(=O)N(C)CC(=O)N(C)[C@@H](CC(C)C)C(=O)N[C@@H](C(C)C)C(=O)N(C)[C@@H](CC(C)C)C(=O)N[C@@H](C)C(=O)N[C@H](C)C(=O)N(C)[C@@H](CC(C)C)C(=O)N(C)[C@@H](CC(C)C)C(=O)N(C)[C@@H](C(C)C)C(=O)N1C", "note": "[PSC833]", "values": [{"measurement": "effect of inhibitor on P-gp-mediated vectorial transport of doxorubicin", "setting": "P-gp", "value": "markedly reduced"}]}, {"molecule": "OCT3 (Homo sapiens) (protein) MPSFDEALQRVGEFGRFQRRVFLLLCLTGVTFAFLFVGVVFLGTQPDHYWCRGPSAAALAERCGWSPEEEWNRTAPASRGPEPPERRGRCQRYLLEAANDSASATSALSCADPLAAFPNRSAPLVPCRGGWRYAQAHSTIVSEFDLVCVNAWMLDLTQAILNLGFLTGAFTLGYAADRYGRIVIYLLSCLGVGVTGVVVAFAPNFPVFVIFRFLQGVFGKGTWMTCYVIVTEIVGSKQRRIVGIVIQMFFTLGIIILPGIAYFIPNWQGIQLAITLPSFLFLLYYWVVPESPRWLITRKKGDKALQILRRIAKCNGKYLSSNYSEITVTDEEVSNPSFLDLVRTPQMRKCTLILMFAWFTSAVVYQGLVMRLGIIGGNLYIDFFISGVVELPGALLILLTIERLGRRLPFAASNIVAGVACLVTAFLPEGIAWLRTTVATLGRLGITMAFEIVYLVNSELYPTTLRNFGVSLCSGLCDFGGIIAPFLLFRLAAVWLELPLIIFGILASICGGLVMLLPETKGIALPETVDDVEKLGSPHSCKCGRNKKTPVSRSHL", "values": [{"measurement": "Km", "setting": "[2]", "value": "13.0 ± 10.7", "unit": "µM"}]}, {"molecule": "OCT2 (Homo sapiens) (protein) MPTTVDDVLEHGGEFHFFQKQMFFLLALLSATFAPIYVGIVFLGFTPDHRCRSPGVAELSLRCGWSPAEELNYTVPGPGPAGEASPRQCRRYEVDWNQSTFDCVDPLASLDTNRSRLPLGPCRDGWVYETPGSSIVTEFNLVCANSWMLDLFQSSVNVGFFIGSMSIGYIADRFGRKLCLLTTVLINAAAGVLMAISPTYTWMLIFRLIQGLVSKAGWLIGYILITEFVGRRYRRTVGIFYQVAYTVGLLVLAGVAYALPHWRWLQFTVSLPNFFFLLYYWCIPESPRWLISQNKNAEAMRIIKHIAKKNGKSLPASLQRLRLEEETGKKLNPSFLDLVRTPQIRKHTMILMYNWFTSSVLYQGLIMHMGLAGDNIYLDFFYSALVEFPAAFMIILTIDRIGRRYPWAASNMVAGAACLASVFIPGDLQWLKIIISCLGRMGITMAYEIVCLVNAELYPTFIRNLGVHICSSMCDIGGIITPFLVYRLTNIWLELPLMVFGVLGLVAGGLVLLLPETKGKALPETIEEAENMQRPRKNKEKMIYLQVQKLDIPLN", "values": [{"measurement": "Km", "setting": "[3]", "value": "76.1 ± 42.8", "unit": "µM"}]}, {"molecule": "OCT1 (Homo sapiens) (protein) MPTVDDILEQVGESGWFQKQAFLILCLLSAAFAPICVGIVFLGFTPDHHCQSPGVAELSQRCGWSPAEELNYTVPGLGPAGEAFLGQCRRYEVDWNQSALSCVDPLASLATNRSHLPLGPCQDGWVYDTPGSSIVTEFNLVCADSWKLDLFQSCLNAGFLFGSLGVGYFADRFGRKLCLLGTVLVNAVSGVLMAFSPNYMSMLLFRLLQGLVSKGNWMAGYTLITEFVGSGSRRTVAIMYQMAFTVGLVALTGLAYALPHWRWLQLAVSLPTFLFLLYYWCVPESPRWLLSQKRNTEAIKIMDHIAQKNGKLPPADLKMLSLEEDVTEKLSPSFADLFRTPRLRKRTFILMYLWFTDSVLYQGLILHMGATSGNLYLDFLYSALVEIPGAFIALITIDRVGRIYPMAMSNLLAGAACLVMIFISPDLHWLNIIIMCVGRMGITIAIQMICLVNAELYPTFVRNLGVMVCSSLCDIGGIITPFIVFRLREVWQALPLILFAVLGLLAAGVTLLLPETKGVALPETMKDAENLGRKAKPKENTIYLKVQTSEPSGT", "values": [{"measurement": "Km", "setting": "[3]", "value": "4.66 ± 3.43", "unit": "µM"}]}]}
